Reference: article PMC8215223

Molecular target: GM130 (UniProt Q08379)
Assay: co-IP of GM130 with GFP-HOOK3
Details: reference: wild type

| binding against the reference (sites S238) | binding against the reference (sites S707) | Substance |
| --- | --- | --- |
| weaker | – | HOOK3 (from UniProt Q86VS8) S238A |
| – | weaker | HOOK3 (from UniProt Q86VS8) S707A |
